The target in data set [1] is Aβ(1-40), P05067.
Data set [2] addresses Aβ(1-42), P05067.

B1: angiotensin-converting enzyme (ACE) (protein)
chain: LDPGLQPGNFSADEAGAQLFAQSYNSSAEQVLFQSVAASWAHDTNITAENARRQEEAALLSQEFAEAWGQKAKELYEPIWQNFTDPQLRRIIGAVRTLGSANLPLAKRQQYNALLSNMSRIYSTAKVCLPNKTATCWSLDPDLTNILASSRSYAMLLFAWEGWHNAAGIPLKPLYEDFTALSNEAYKQDGFTDTGAYWRSWYNSPTFEDDLEHLYQQLEPLYLNLHAFVRRALHRRYGDRYINLRGPIPAHLLGDMWAQSWENIYDMVVPFPDKPNLDVTSTMLQQGWNATHMFRVAEEFFTSLELSPMPPEFWEGSMLEKPADGREVVCHASAWDFYNRKDFRIKQCTRVTMDQLSTVHHEMGHIQYYLQYKDLPVSLRRGANPGFHEAIGDVLALSVSTPEHLHKIGLLDRVTNDTESDINYLLKMALEKIAFLPFGYLVDQWRWGVFSGRTPPSRYNFDWWYLRTKYQGICPPVTRNETHFDAGAKFHVPNVTPYIRYFVSFVLQFQFHEALCKEAGYEGPLHQCDIYRSTKAGAKLRKVLQAGSSRPWQEVLKDMVGLDALDAQPLLKYFQPVTQWLQEQNQQNGEVLGWPEYQWHPPLPDNYPEGIDLVTDEAEASKFVEEYDRTSQVVWNEYAEANWNYNTNITTETSKILLQKNMQIANHTLKYGTQARKFDVNQLQNTTIKRIIKKVQDLERAALPAQELEEYNKILLDMETTYSVATVCHPNGSCLQLEPDLTNVMATSRKYEDLLWAWEGWRDKAGRAILQFYPKYVELINQAARLNGYVDAGDSWRSMYETPSLEQDLERLFQELQPLYLNLHAYVRRALHRHYGAQHINLEGPIPAHLLGNMWAQTWSNIYDLVVPFPSAPSMDTTEAMLKQGWTPRRMFKEADDFFTSLGLLPVPPEFWNKSMLEKPTDGREVVCHASAWDFYNGKDFRIKQCTTVNLEDLVVAHHEMGHIQYFMQYKDLPVALREGANPGFHEAIGDVLALSVSTPKHLHSLNLLSSEGGSDEHDINFLMKMALDKIAFIPFSYLVDQWRWRVFDGSITKENYNQEWWSLRLKYQGLCPPVPRTQGDFDPGAKFHIPSSVPYIRYFVSFIIQFQFHEALCQAAGHTGPLHKCDIYQSKEAGQRLATAMKLGFSRPWPEAMQLITGQPNMSASAMLSYFKPLLDWLRTENELHGEKLGWPQYNWTPNSARSEGPLPDSGRVSFLGLDLDAQQARVGQWL
In the case of B1, the “Aβ cleavage (ELISA-based assay of intact Aβ)” value in data set [1] was “ECE2 and ACE were completely inactive on both Aβ isoforms”; in data set [2] it was “ECE2 and ACE were completely inactive on both Aβ isoforms”.

B2: endothelin-converting enzyme 2 (ECE2) (protein)
chain: GVQYHRDPSHSTCLTEACIRVAGKILESLDRGVSPCEDFYQFSCGGWIRRNPLPDGRSRWNTFNSLWDQNQAILKHLLENTTFNSSSEAEQKTQRFYLSCLQVERIEELGAQPLRDLIEKIGGWNITGPWDQDNFMEVLKAVAGTYRATPFFTVYISADSKSSNSNVIQVDQSGLFLPSRDYYLNRTANEKVLTAYLDYMEELGMLLGGRPTSTREQMQQVLELEIQLANITVPQDQRRDEEKIYHKMSISELQALAPSMDWLEFLSFLLSPLELSDSEPVVVYGMDYLQQVSELINRTEPSILNNYLIWNLVQKTTSSLDRRFESAQEKLLETLYGTKKSCVPRWQTCISNTDDALGFALGSLFVKATFDRQSKEIAEGMISEIRTAFEEALGQLVWMDEKTRQAAKEKADAIYDMIGFPDFILEPKELDDVYDGYEISEDSFFQNMLNLYNFSAKVMADQLRKPPSRDQWSMTPQTVNAYYLPTKNEIVFPAGILQAPFYARNHPKALNFGGIGVVMGHELTHAFDDQGREYDKEGNLRPWWQNESLAAFRNHTACMEEQYNQYQVNGERLNGRQTLGENIADNGGLKAAYNAYKAWLRKHGEEQQLPAVGLTNHQLFFVGFAQVWCSVRTPESSHEGLVTDPHSPARFRVLGTLSNSRDFLRHFGCPVGSPMNPGQLCEVW
Regarding B2, the “Aβ cleavage (ELISA-based assay of intact Aβ)” value in data set [1] was “ECE2 and ACE were completely inactive on both Aβ isoforms”; in data set [2], “ECE2 and ACE were completely inactive on both Aβ isoforms”.

These data come from patent publication US20260183373.
